Laboratory results from publication PMC9294000, “Structural basis for the simultaneous recognition of NEMO and acceptor ubiquitin by the HOIP NZF1 domain” (Scientific Reports, 2022).

Assays:
[1] = molecular target: T1, mouse NEMO (mNEMO, a.a. 250–339, corresponding to hNEMO 257–346) (mouse, UniProt O88522 250-339); assay: SPR; Biacore S200; GST-HOIP NZF1 held on anti-GST antibodies amine-coupled to a CM5 chip, GST as control; analytes in 10 mM HEPES pH 7.4, 150 mM NaCl, 0.005% P20; mono-ubiquitin 288.0-1.1 µM, mNEMO 100.0-0.4 µM; equilibrium KD; duplicate; conditions: both partners purified
T1 construct: NEMO (IKKγ), mouse, residues 250-339; Cloned into pET-28a downstream of the 6xHis tag; source: E. coli BL21 (DE3), purified (Talon beads, on-column thrombin cleavage, size-exclusion chromatography); not shown: His6, N-terminal, cleaved
T1 sequence (O88522 250-339): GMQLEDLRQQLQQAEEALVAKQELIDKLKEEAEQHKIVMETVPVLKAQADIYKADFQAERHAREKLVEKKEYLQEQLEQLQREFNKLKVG

mono-ubiquitin = molecular target: T2, mono-ubiquitin (UniProt P0CG48 1-76); assay: as above; conditions: both partners purified
T2 construct: ubiquitin (mono-ubiquitin); The methods describe neither a plasmid nor a supplier for the mono-ubiquitin

[2] = molecular target: T3, human HOIP NZF1 (hHOIP NZF1, aa. 350–379) (human, UniProt Q96EP0 350-379); assay: crystal structure; hHOIP NZF1, hNEMO and linear di-ubiquitin purified separately, mixed in an equimolar ratio; sitting drops, 0.1 M Tris-HCl pH 8.5, 22% v/v PEG Smear Broad; 4.2 Å; heteropentameric complex; conditions: both partners purified
T3 construct: HOIP, human, NZF1 domain, residues 350-379; Cloned into pGEX-6p-1; also called Npl4 zinc finger 1 domain of HOIP; source: E. coli BL21 (DE3), purified (Glutathione Sepharose 4B, on-column PreScission cleavage, Superdex 75); not shown: GST, N-terminal, cleaved
T3 chain (looked up): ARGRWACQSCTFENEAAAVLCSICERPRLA

linear diubiquitin = molecular target: T4, linear diubiquitin (UniProt P0CG48 1-76; P0CG48 1-76); assay: as above; conditions: both partners purified
T4 construct: ubiquitin, the N-terminal (distal) unit of the head-to-tail chain; its C-terminal Gly is joined to Met1 of the next ubiquitin; ubiquitin, the C-terminal (proximal) unit of the head-to-tail chain, residues 1-76 (Leu73-Gly76 not visible in the map); Two ubiquitins on one chain, expressed from pGEX-4T-1; also called linear diubiquitin chain; source: E. coli, purified (Glutathione Sepharose 4B, …)

[3] = molecular target: the molecule itself; assay: as above

B1: GST-HOIP NZF1(a.a. 350–379) (domain or fragment, human, UniProt Q96EP0 350-379, looked up)
chain: T3 chain (looked up)
notes: HOIP, human, NZF1 domain, residues 350-379; Held on the SPR chip by anti-GST antibodies; how the uncleaved fusion was purified is not described; source: E. coli BL21 (DE3), expressed as GST-fusion protein; not shown: GST, N-terminal, kept
- Kd [1]: 86.7 µM
- Kd (mono-ubiquitin): 135 µM

B2: human NEMO (hNEMO, aa. 257–346) (domain or fragment, UniProt Q9Y6K9 257-346, looked up)
chain: GMQLEDLKQQLQQAEEALVAKQEVIDKLKEEAEQHKIVMETVPVLKAQADIYKADFQAERQAREKLAEKKELLQEQLEQLQREYSKLKAS
notes: NEMO (IKKγ), human, residues 257-346 (CoZi region with the UBAN domain); Coiled-coil homodimer in the crystal; Cloned into pGEX-6p-1; also called NEMO CoZi; NEMO coiled-coil 2/zinc finger (CoZi); source: E. coli BL21 (DE3), purified (Glutathione Sepharose 4B, on-column PreScission cleavage, Superdex 75); not shown: GST, N-terminal, cleaved
- stoichiometry N [2]: 2 NEMO chains per NZF1
- binding result (linear diubiquitin): binds
- stoichiometry N [3]: 2
